Source: PMC1179735

T1: indolicidin (Bos taurus (bovine; synthetic peptide), UniProt P33046)
T1 chain: ILPWKWPWWPWRR


Biological target: T1, indolicidin
Test: SPR
For CAGAGAGAGT (ssDNA) [ss[AG]], the Kd was 2440 µM.
Work on CGTGTGTGTC (ssDNA) [ss[GT]] yielded a Kd of 115 µM.
For CATAATATTC (ssDNA) [ss[AT]], the Kd was 2090 µM.
Work on CGCGGCGGCT (ssDNA) [ss[GC] (ss[CG] in Table 2)] yielded a Kd of 1530 µM.
